This is an account of results in the nanobody polyreactivity screen of Harvey et al. (2022).

This series in a line: yeast display, Sf9 membrane polyspecificity reagent, FACS + sequencing; frameworks hold sequencing errors. In a few lines:
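A nanobody's polyreactivity label depends on the gate it was sorted from. Yeast display cells were stained with 10% biotinylated, detergent-solubilized Sf9 membrane reagent for 1 hour at 4 °C, enriched on streptavidin microbeads and sorted by FACS. The low and high (top ~1%) gates were set on anti-HA fluorescence for expression and streptavidin fluorescence for reagent binding.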
As for “QVQLVESGGGLVQAGGSLRLSCAASGSTFTGYAMGWYRQAPGTERELVATINSGVSTYADSVKGRFTISRDNAKNTVYLQMNSLKPEDTAVYYCAADGLYYYQSGWIDAGYYTNGYWGQGTQVTVSS”, the “polyreactivity (PSR sort gate)” value is on record as “low polyreactivity”.
For the sequence “QVQLVESGGGLVQAGGSLRLSCTASGITSGSYAMGWYRQEPGKESELVAAISNSGSTYYADSVKGRFTISRDNAKNTVYLQMNSLKPEDTEVYYCAAVTVGGHRSHRSGRSDYWGQGTQVTVSS”, the “polyreactivity (PSR sort gate)” value was “low polyreactivity”.
In the case of “QVQLVESGGGLVQAGGSLRLSCAASGRTFSRNAMGRYRQAPGKERELVATITSDGSTNYADSVKGRFTISRDNAKNTVYLQMNSLKPEDTAVYYCAAGEQSSIIGAHDYWGQGTQVTVSS” it was “low polyreactivity”; in that of “QVQLVESGGGLVQAGGSLRLSCAASGCIVSYYTMGWYRQAPGKERELVAAIRSSGGSTYADSVKGRFTISRDNAKNTVYLQMNCLKPEDTAVYYCAAVQTWRWVYARDYWGEGTQVTVSS”, “high polyreactivity”.
In the case of “QVQLVESGGGLVQAGGSLRLSCAASGRIFNYNAMGWYRQAPGKERELVATITYIGTGTYYADSVKGRFTISRDNAKNTVYLQMNSQKPDDTAVYYCAASYRSRVWWRFDYWGQGSQVTVSS” it was “high polyreactivity”; in that of “QVQLVESGGGLVQAGGSLRLSCAASGSTFSYNAMGWYRQAPGKERELVAAISWRGGRTYYADSVKGRFTISRDNAKNTVYLQMYSLKPEDTAVYYCAAAYAAYSRYRYDYWGQGTQVTVSS”, “high polyreactivity”.
For the sequence “QVQLVESGGGLVQAGGSLRLSCAASGIIFGNNAMGWYRQAPGKERELVAAIRWSTGTTYYADSVKGRFTISRDNAKNTVYLQMNSLKPEDTAVYYCAARLRREYGYWGQGTQVTVSS”, the “polyreactivity (PSR sort gate)” value is on record as “high polyreactivity”.
On to “QVQLVESGGGLVQAGGSLRLSCAASGRTFRSNAMGWYRQAPGKERELVAAIRTSGGSTYYADSVKGRFTISRDNAKNTVYLQMNSLKPEDTAVYYCNAELRDLEFDYWGQGTQVTVSS”, for which the “polyreactivity (PSR sort gate)” value was “low polyreactivity”.
In the case of “QVQLVESGGGLVQAGGSLRLSCAASGSTFPRYAMGWYRQAPGKERELVASITSDGGSTYYADSVKGRFTISRDNAKNTVYLQMNSLKPEDTAFYYCNKVPYRGYRRYGYWGQGTQVTVSS” it was “high polyreactivity”; in that of “QVQLVESGGGLVQEGGSLRLICAASGSIFEVNAMGWYRQAPGKERELAATITYSGGSTYYADSVKGRFTISRDNAKNTVYFQMNSLKPEDTAVYYCATDYVDWELYIYDYWGQGTQVTVSS”, “low polyreactivity”.
For the sequence “QVQLVESGGGLVQAGGSLRLSCAASGRIFKRYVMGWYRQAPGKERELVAAISVRGASTYYADSVKGRFTISRDNAKNTVSLQMNSLKPEDTAVYYCATAGYRLLDYWGQGTQVTVSS”, the “polyreactivity (PSR sort gate)” value is listed as “high polyreactivity”.
In the case of “QVQLVESGGGLVQAGGSLRLSSAASGRIFRVNAMGLYTQAPGKERELVAAISRRGGSTYYADSVKGRFTISRDNAKNTVYLQMNTLKPEDTAVYYCAKKSYSYGYNSYYYWGQGTQVTVSS” it was “high polyreactivity”; in that of “QVQLVESGGGLVQAGGRLRLTCAASGRNYNGNAMGRYRQAPGTERELVAGIDSDGSTNYADSVKGRFTISRDNAKNTVYLQMNSLKPDDTAGYYCAAVQGYRFYEYYYWGQGTQVTVSS”, “low polyreactivity”; in that of “QVQLVESGGGLVQAGGSLRLSCAASGRTFVRNAKGWYRQAPGKERELVAAITSGGSTYYADSVKGRFTISRDNAKNTVYLQMNSLKPEDTAVYYCAAISTWGTKYDYWGQGTQVTVSS”, “high polyreactivity”.
The entry for “QVQLVESGGGLVQAGGSLRLSFAASGITITYYAMGWYRQAPGKERELVAGITNGRSTYYADSVKGRFTISRDNAKNTVYLQMNSLKPEDTAVYYCAAYVWSHSVGHDYWGQGTQVTVSS” is “low polyreactivity”; for “QVQLVESGGGLLQAGGSLRLSCAASGRTSVRYAMGWYRQAPGKERELVAAISWSGGSTYYADSVKGRFTISRDHAKNTVYLQMNCLKPEDTAVYYCNAQHARGYYYWGQGTQVTVSS” it is “low polyreactivity”.
In the case of “QVQLQESGGGQVHAGGSLRLSCAASGTIFLYAFMGWYRQPPAKERELVAAIDVGTTTNYADSVKGRFTISRDNEKNTVYLQMNSLKPEDTAVYYCAANLGYLDDLGYWGQGTQVTVSS” it was “low polyreactivity”.
Take “QVQLVESGGGLVQAGVSLRLSFAASGSTFRGYAMGWYRQAPGKEREVVAAISSRGARTHYAHSVKGRFTISRDNAKNTVYLQMYSLKPVDTAVNYCNKRQVFVSTGEYEFDYCGQGTQVTVSS”: the “polyreactivity (PSR sort gate)” value is “low polyreactivity”.
For “QVQLVESGGGLDQAGGSLRLSCAASGRIFGYYAMGWYRQAPGKERELVAAISRSGGSTNYADSVKGRFTISRDTAKNTVYLQMNSLKPEDTAVYYCAVRYPYYSPFGGYDYWGQGTQVTVSS”, the “polyreactivity (PSR sort gate)” value was “high polyreactivity”.
With “QVQLVESVVGLVQAGLSLRLSSAASGSIFSGYMGWYRHAPGKERELVATITSGGSTYADSVKGRFTISRDNAKNTVYLQMNSLKPEDTAVYYCAADVSFYTSKYDYWGLGTQVTVSS”, the “polyreactivity (PSR sort gate)” value is “low polyreactivity”.
As to “QVQLVESGGGLVQAGGSLRLSCAASGSTFRYYALGWYRQAPGKERELVASISIGGGPTYYADSVKGRFTISRDNAKNTVYLQMHIQKPEDTAVYYCAAERTIRAARPVVRTFDYWGHGTQVTVSS”, the “polyreactivity (PSR sort gate)” value is reported as “low polyreactivity”.
Regarding “QVQLVESGGGLVQAGGSLRLSCAASGSIFEAYAMGWYRQAPGKERELVAAITTAGGSTYYADSVKGRFTISRDNAKNTVYLQMNSLKPEETAVYYCARDYGKYKGYYWGQGTQVTVSS”, the “polyreactivity (PSR sort gate)” value is listed as “low polyreactivity”.
The entry for “QVQLVESGGGLVQAGGSLRLSCAASGFTFYKKTMGWYRQAPGKERELVAAISSSGSSTYYADAVKGRVTISRDNAKNTVYLQMNSLKPEDSAVEYCAAGRFAYHDDYWGQGTQVTVSS” is “high polyreactivity”.
As to “QVQLVESGGGLVQAGGSHRLSCAASGITFYGYARGWYRQAPGKERELVAAISGNGGRTYYADSVKGRFTISRDYAKNTVYLQMNSLKPEDTAVYYCNVKVRSRRTGDRYDYWGQGTQVTVSS”, the “polyreactivity (PSR sort gate)” value is listed as “high polyreactivity”.
In the case of “QVQLVESGGGLVQAGGSLRLSCAASGSIFVGYAMGWYRQAPGKERELVAAISWSGDSTYYADSVKGRFTISRDTAKNTVYLQMNSLKPEDTAVYYCAVDYAEIGPRREVEYDYWGQGTQVTVSS” it was “low polyreactivity”; in that of “QVQLVESGGGLVQAGGSLRLSCAASGRTFDAYAMGWYRQAPGKERELVAAISSGGSTNYADSVKGRFTISRDHAKNTVYLQMNSLKPEDTAVYYCAAEYIQYLFYSVRVAYDYWGQGTQVTVSS”, “low polyreactivity”.
The entry for “QVQLVESGGGLVQAGGSLRLSCAASGSTFLSNAMGWYRQAPGKERELVAAISVSGARTYYADSVKGRFTISRDNAKNTVYLQMNSLKPEDTAVYYCNAGTSVRYTESSDYWGQATQVTVSS” is “high polyreactivity”; for “QVQLVESGGGLVQAGGSLRLSCAASGSIFGFYAMGWYRQAPGKEREFVASISDSSGSTYYADSVKGRFTISRDNAKNTVYLQMNSLKPEDTAVYYCNARVNYRWPYSWRYYWGQGTQVTVSS” it is “high polyreactivity”; for “QVQLVESGGGLVQAGGSLRLSCAASGRIFRFYAMGWYRQAPGKETELVATINSGVGRTYYADSVKGRFTISRDNAKNTVYLQFNSLKPEDTAVYYCAAEKRSYPQSYYYWGQGTQVTVSS” it is “high polyreactivity”.
On to “QVQLVESGGGLVQAGGSLRLSCAASGFTFRDYSMGWYRQAPGKERELVAAMSFSGGRTFYADSVKGRFTISRDNGKNTVYLQMNSLKPEDTAVYFCNAQYLTSRYYPRRNLDYWGQGTQVTVSS”, for which the “polyreactivity (PSR sort gate)” value is “high polyreactivity”.
For “QVQIVESGGGLVQAGGSLRLSCDASGSILLWNTMGWYRQAPGKERELVADSSLSASSTYYADSVKGRFTISRDNAQNTVYLELNSLKPEDTAVYFCAADEYSPDYGQGYDYWGEGTQVTVSS”, the “polyreactivity (PSR sort gate)” value was “low polyreactivity”.
As to “QVQLVESGGGLVQAGGSLRLSCAASGSTFKRYAMGWYRQAPGKERELVASISSGGSTNYADSVKGRFTISRDNAKNTVYLQMNSLKREDTAVYYCAVSYRSFRYYWERYYSWGQGTQVTLSS”, the “polyreactivity (PSR sort gate)” value was “high polyreactivity”.
The entry for “QVQLVESGGGLVQAGGSLRLSCAASGSTFDPNAMGWYRQAPGKERELVAAITSGGSTYYADSVKGRFTISRDNAKNTVYLQMNSLKPEDTAVYYCNAPLEWGVYAAQNWDDGYWGQGTQVTVSS” is “low polyreactivity”.
In the case of “QVQLVESGGGFVQAGGSLRLSSAASGRTFDTNAMGWYRQSPGKERELVAAISWSAGRTYYADSVKGRFTISRDNAKNTVYLQMNSLKPEDTAVYYCAADSFTPDYYSHDYCGQGTQVTVSS”, the “polyreactivity (PSR sort gate)” value is given as “low polyreactivity”.
In the case of “QVQLVDSGGGLVQAGGSLRLSCAASGSTFRRYAMGWYRQAPGKERELVAAITTADITNYADSVKGRFTISRDNAKNTVYLQMNSLKPEDTAVYYCAAPVAYRGSRNFIYRYNYWGQGTQVTVSS” it was “high polyreactivity”; in that of “QVQLVESGGGLVQAGGSLSLSCAASGRIFRRYAMGWYRPAPGKERELVASISSGGSTNYADSVKGRFTISRDNAKNTVYLQMNSLKPEDTAVYYCDADRARYYYQAYGAYGYWGQGTQVTVSS”, “high polyreactivity”; in that of “QVQLVESGGGLVQAGGSLRLSCAASGRILGYNAMGWYRQAPGKERELVAAITSGGSTYYADSVKGRFTISRDNAKNTVYLQMNRLKPEDTAVYYCAKRAFSYVGGQQDRNENYYYWGQGTQVTVSS”, “high polyreactivity”.
In the case of “QVQLQESGGGLVQAGGSLRLSCAASGYISTFSSEMGWYRQAPGKERELVASIAPGCTTSYADSVKGRFTISRDNAKNTVYLQMHRLKPEDTAVYYCAVDYTVPASFGYWGQGTQVTVSS”, the “polyreactivity (PSR sort gate)” value was “high polyreactivity”.
The entry for “QVQLVESGGGLVQAGGSLRLSCAASGSIFPPYVMGWYRQAPGKERELVASITTSGGSTYYADSVKGRFTISRDNAKNPVYLQMNSLKPEDTAVYYCAARWYYGGKSAGPGGGYWGQGTQVTVSS” is “low polyreactivity”; for “QVELVESGGGLVQAGVSLRLSCAASGIISRGYAMGWYRQAPGKERELVAAISRSGGTTYYADSVKGRFTISRDNAKTTVYLQMNSLKPEDTAVYYCAARSKYFGYWGQGTQVTVSS” it is “high polyreactivity”.
